Source: article PMC8143792, “Sec17/Sec18 can support membrane fusion without help from completion of SNARE zippering” (eLife, 2021)

T1: Qa (Vam3), full-length (Saccharomyces cerevisiae, UniProt Q12241 1-283)
T1 construct: Vam3, the vacuolar Qa-SNARE of Saccharomyces cerevisiae, full length with its transmembrane anchor; whether GST was removed is told only in the cited work; also called GST-Qa (Vam3); source: E. coli, purified
T1 sequence (looked up): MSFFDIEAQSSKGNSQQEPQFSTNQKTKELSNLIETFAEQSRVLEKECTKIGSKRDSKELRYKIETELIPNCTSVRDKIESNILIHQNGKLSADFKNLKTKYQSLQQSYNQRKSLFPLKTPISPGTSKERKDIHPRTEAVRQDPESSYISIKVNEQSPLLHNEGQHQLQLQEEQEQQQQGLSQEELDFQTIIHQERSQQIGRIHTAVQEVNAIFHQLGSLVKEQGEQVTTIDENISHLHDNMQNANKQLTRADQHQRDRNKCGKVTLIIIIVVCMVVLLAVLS

B1: his6-R (Nyv1), full-length R-SNARE with a 6his-tag on its N-terminus (natural protein, Saccharomyces cerevisiae, UniProt Q12255 1-253, looked up)
chain: MKRFNVSYVEVIKNGETISSCFQPFQKNENYGTITSANEQITPVIFHNLIMDMVLPKVVPIKGNKVTKMSMNLIDGFDCFYSTDDHDPKTVYVCFTLVDMPKILPIRILSGLQEYESNATNELLSSHVGQILDSFHEELVEYRNQTLNSSGNGQSSNGNGQNTISDIGDATEDQIKDVIQIMNDNIDKFLERQERVSLLVDKTSQLNSSSNKFRRKAVNIKEIMWWQKVKNITLLTFTIILFVSAAFMFFYLW
notes: Nyv1, the vacuolar R-SNARE of Saccharomyces cerevisiae, full length with its membrane anchor; construct as in the cited work (PMID:22174414); also called His-R (Nyv1); source: E. coli, purified; not shown: His6, N-terminal, kept

Experiments:
[1] = biological target: T1, Qa (Vam3), full-length; assay: pull-down; his6-R held on nickel-NTA agarose; 2.5 µM of each SNARE (R and three Q-SNAREs mixed), Buffer 151 (20 mM HEPES-NaOH, pH 7.4, 150 mM NaCl, 10% glycerol, 1% ß-OG, 20 mM imidazole), 4°C, 2 hr then 1 hr on beads; immunoblot; conditions: both partners purified
[2] = biological target: B1; assay: as above; conditions: both partners purified

binding result [1]	binding result [2]	Binder
binds	–	B1
–	binds	Qb (Vti1), full-length (natural protein, Saccharomyces cerevisiae, UniProt Q04338 1-217, looked up, Vti1, the vacuolar Qb-SNARE of Saccharomyces cerevisiae, full length with its transmembrane anchor; whether GST was removed is told only in the cited work; also called GST-Qb (Vti1); source: E. coli, purified) MSSLLISYESDFKTTLEQAKASLAEAPSQPLSQRNTTLKHVEQQQDELFDLLDQMDVEVNNSIGDASERATYKAKLREWKKTIQSDIKRPLQSLVDSGDRDRLFGDLNASNIDDDQRQQLLSNHAILQKSGDRLKDASRIANETEGIGSQIMMDLRSQRETLENARQTLFQADSYVDKSIKTLKTMTRRLVANKFISYAIIAVLILLILLVLFSKFK
–	binds	sQa3Δ, soluble Qa (Vam3) with amino acyl residues 1–235 (domain or fragment, Saccharomyces cerevisiae, UniProt Q12241 1-235, looked up, Vam3 of Saccharomyces cerevisiae, residues 1-235; lacks the regions C-terminal to the +3 layer of the SNARE domain; also called GST-sQa3Δ; GST-Qa (Vam3)3Δ; source: E. coli Rosetta2 (DE3)-pLysS, purified (glutathione agarose), GST tag removed by TEV protease) MSFFDIEAQSSKGNSQQEPQFSTNQKTKELSNLIETFAEQSRVLEKECTKIGSKRDSKELRYKIETELIPNCTSVRDKIESNILIHQNGKLSADFKNLKTKYQSLQQSYNQRKSLFPLKTPISPGTSKERKDIHPRTEAVRQDPESSYISIKVNEQSPLLHNEGQHQLQLQEEQEQQQQGLSQEELDFQTIIHQERSQQIGRIHTAVQEVNAIFHQLGSLVKEQGEQVTTIDENI
–	binds	sQb3Δ, soluble Qb (Vti1) with amino acyl residues 1–160 (domain or fragment, Saccharomyces cerevisiae, UniProt Q04338 1-160, looked up, Vti1 of Saccharomyces cerevisiae, residues 1-160; lacks the regions C-terminal to the +3 layer of the SNARE domain; also called GST-sQb3Δ; GST-Qb (Vti1)3Δ; source: E. coli Rosetta2 (DE3)-pLysS, purified (glutathione agarose), GST tag removed by TEV protease) MSSLLISYESDFKTTLEQAKASLAEAPSQPLSQRNTTLKHVEQQQDELFDLLDQMDVEVNNSIGDASERATYKAKLREWKKTIQSDIKRPLQSLVDSGDRDRLFGDLNASNIDDDQRQQLLSNHAILQKSGDRLKDASRIANETEGIGSQIMMDLRSQRE
